This note sets out measurements from the DeepSol protein solubility set.

This series in a line: soluble on expression in E. coli; label from the status in PepcDB or PDB records.
“MGSDKIHHHHHHAQSKSSVYKPWSHGQLKVSKENRYLMNADGTPFFWLGDTGWLLPEKLNRDEAAYYLEHCRQAGFNVVQVQTINGVPAMNFYGQYSMIDGFNFKNIDRKGVYGYWDHMDYIIQKAEQNGIYIAMVCIWGGLVRSGKMNVEEAKAYGRFLGERYKDAPNIIWVIGGDTYADRNTEIWEALANSILAVDENHIMTFHPFGRTSSATHLNNKEWMDMNMFQSGHRRYGQKKGDGDTSVTGLEEDNWRYVEEALSMTPLKPVLDAEPSYEGIPQGLHDPAQPRWRDCDVRRYGYWSVFAGSCGHTYGHNNIMQFLKPGTPGGYGADGIEKPWYKAMQDPGFNQMKYLKNLMLTFPYFERVPDQSVIAGTNGNRYDRAIATRGKDYLLVYNYSGNPMSVDLTKISGAKKKVWWYSPKDGKLSFIGEFDSKITPFTYDGSYNRDNDQVLIAIDSSKNYISTEWLELPMVNQ”: the “soluble on expression in E. coli” value is given as “not soluble”.
To “PHMQPFDSGHDDLVHDVVYDFYGRHVATCSSDQHIKVFKLDKDTSNWELSDSWRAHDSSIVAIDWASPEYGRIIASASYDKTVKLWEEDPDQEECSGRRWNKLCTLNDSKGSLYSVKFAPAHLGLKLACLGNDGILRLYDALEPSDLRSWTLTSEMKVLSIPPANHLQSDFCLSWCPSRFSPEKLAVSALEQAIIYQRGKDGKLHVAAKLPGHKSLIRSISWAPSIGRWYQLIATGCKDGRIRIFKITEKLSPLASEESLTNSNMFDNSADVDMDAQGRSDSNTEEKAELQSNLQVELLSEHDDHNGEVWSVSWNLTGTILSSAGDDGKVRLWKATYSNEFKCMSVITAQQ” belongs “soluble”; to “MPGFDYKFLEKPKRRLLCPLCGKPMREPVQVSTCGHRFCDTCLQEFLSEGVFKCPEDQLPLDYAKIYPDPELEVQVLGLPIRCIHSEEGCRWSGPLRHLQGHLNTCSFNVIPCPNRCPMKLSRRDLPAHLQHDCPKRRLKCEFCGCDFSGEAYESHEGMCPQESVYCENKCGARMMRRLLAQHATSECPKRTQPCTYCTKEFVFDTIQSHQYQCPRLPVACPNQCGVGTVAREDLPGHLKDSCNTALVLCPFKDSGCKHRCPKLAMARHVEESVKPHLAMMCALVSRQRQELQELRRELEELSVGSDGVLIWKIGSYGRRLQEAKAKPNLECFSPAFYTHKYGYKLQVSAFLNGNGSGEGTHLSLYIRVLPGAFDNLLEWPFARRVTFSLLDQSDPGLAKPQHVTETFHPDPNWKNFQKPGTWRGSLDESSLGFGYPKFISHQDIRKRNYVRDDAVFIRAAVELPRKILS”, “soluble”.
As for “MGSDKIHHHHHHMCIYCISKQVFCLSGLRFPYGFTPMGLHLRSLNMAYINKSNVSILRSLSCASISLYYSMSAAASHLEVDDPALAERCELEMGWQQPRSDHARTQLNATTTCSRNQWEWHVGLASNVNDDIREEQAEVGIKLPLNLNSHSDSNRQQDDWHSALVINLQKNLDASNELATEVFGIFGKTLSDSDVSLYANVGFTHEFNQSTQLLVGIAAAHELSSHHRVITELYQKELSETAYQFAYQHTPQQQLQLELSLGNALRGNALQLGADITFYFGH”, the “soluble on expression in E. coli” value is on record as “not soluble”.
“MGSDKIHHHHHHTQRWLSGNISNFQYLMHLNTLAGRCYNDLSQYPIFPWVLADYTSSQLDFNNISTFRDFSKPMGAQSPDRLEQFLKRFREWDDPSGETPPYMYGTHYSSAMIVVSYLVRLEPFTQQFLSLQGGHFDLADRMFHSVGDAWTSASRNNMADVKELIPEFFTLPEMFTNTNHFDLGVKQNGIHVNDVLLPAWCHGDPREFIRLHRQALESDYVSSHLHEWIDLIFGYKQNGEEAVKNSNLFHHLFYEGSVDFERIDDPLTRNATIGFVNNFGQIPTQLFKKPHPQK”: the “soluble on expression in E. coli” value was “not soluble”.
The same measure for “MSLGQRTSRTPDQLENVGVDQKLGATIPKDLSFQNEQGEPVRLSQYFDGSTPVMLTLNYHRCPQLCRIQLQKFTKSLSGMSWTAGDKFKVLTVDISPYEGPKMARKAQERYATFLDRPEETVDGWHFLTGNQAAIETLTDSVGFRYQPLPEKEKQFAHPTTIIFLSGDGTITRYFTTLDPAPGDLRTALVEASDGEGHHHHHH”: “soluble”; for “NQKDFDRTMVIDERTELVARTITDYLKRTNPMDKTIVFCNDIDHAERMRRALVNLNPEQVKKNDKYVMKITGDDEIGKAQLDNFINPKKPYPVIATTSELMTTGVDAKTCKLVVLDQNIQSMTKFKQIIGRGTRIDERYGKLWFTILDFKKATELFADERFDGIPEKVMDTTPEDIAD”: “not soluble”.
Take “MGSDKIHHHHHHMRIDIDAFNVLQVLVEEGSFAKASERLHKAQSAVSYQVKKLEQHLGVTLFNRDHYRAELTPEGKVILAEGQRLLQHLANIEHLASRFSQGWEPKLELVIDGALPMEPIMTALKRMSEHNIPTKVQLNMEFLGGVQHRFERDQADLMLVKDYRTGPSYHPKPLPTITSVLVASSQHPLSLLKEISLPELQQHVELTIEDSSPGKRDRDEMQFGGDKVFYLSGFIMKKNALLKGLGFGWMPDFLIAEELHQRQLIEVDFIGGNRFSFTPQLVSTLERPLGRAGQLFTELILEEFAQYQLQHQSGLSGAGLG”: the “soluble on expression in E. coli” value is reported as “not soluble”.
On to “MARSQLSAAGEQHVIQLNQQGGKNLFCFPPISGFGIYFKDLALQLNHKAAVYGFHFIEEDSRIEQYVSRITEIQPEGPYVLLGYSAGGNLAFEVVQAMEQKGLEVSDFIIVDAYKKDQSITADTENDDSAAYLPEAVRETVMQKKRCYQEYWAQLINEGRIKSNIHFIEAGIQTETSGAMVLQKWQDAAEEGYAEYTGYGAHKDMLEGEFAEKNANIILNILDKINSDQKVLPNKHGSHHHHHH”, for which the “soluble on expression in E. coli” value is “soluble”.
For “MSLIGEILPLSHIVLDMEVGSKKRLFEEAGLLLERESSLSHADVFECLFAREKLGSTGLGQGVAIPHGRHAGVKQATGAFIRTREPVGFDAPDGKPVSLIFILLVPENATGEHLEVLSKLAGKFSQKSIRESLMTVSSAEEVRAILTEE”, the “soluble on expression in E. coli” value is listed as “soluble”.
The same measure for “LKMTKVMVSEAGASVYSASELAAKEFPDLDVSIRGAVSIARRLQDPLAELVKIDPKSIGVGQYQHDVSQLKLARGLDAVVEDCVNAVGVDVNTASVALLARISGLNTTLAQNIVAHRDENGAFKTRAALKKVSRLGEKTFEQAAGFLRVMTGDNPLDSSAVHPEAYPLVQRIAAETDRDIRSLIGDASFLKRLDPKKFTDETF”: “not soluble”; for “MAHHHHHHMVRPEYSSPPEFFYNEEEAKKYVRNSRIRDIQSQMTERAMELLLLPDSPCLLLDIGCGSGISGMTLNELDHFWIGIDISIHMLRLQNEAHLGGDMLLADMGKLMRFQPCIFDGVVSISALQWLCNWDKKDESPVSRISTFFKWLYNCLKRGARAVFQFYPDSPEQIKTLTNFAMKAGFGGGVVVDFPNSAKSKKYYLCLWAGSSLVATMPTALNDEEENIISHERRKFNKKTKKQIKKNKEWILKKKDQRRMKGLDVKRDSKYTGRKRKGRF”: “not soluble”.
The same measure for “MTGLDKIISQILEDAGKEAQEISEKAKSEAEAVLAEAKAGCKKIAAENDEKLAGEATSYMERIKSSAELKKRQAVLLAKQQVITEMLEQAYEALLKKEGEEYFALIGKMLDKYVLPKTGEIYFSEKDLDRMPQGFEAVIEKAAVSKGGSLTLVKEPKNIDGGFILVYGGIEENCSFRALLAARRDELSDKVHAMLFS”: “not soluble”.
The same measure for “MGSDKIHHHHHHMKVLEKDYQINSVRKAIDAGANSIIALPTGGGKSICILKLCQAMPDKKVVISLRNAALVPQLLHTLTINGLSVSVVKSGYKYIAGGDVTLVMEQSFGRRKHLNIQCDVLLRDEYHVGCMGGVYIAMREELSPDLIIGLTATPIDRLGVYIDKSMQLIEETTTKMLIEAGELAKPVYKVPSLSQEIDYSAVKMYRGDFSVSGLDNILLEHCSLVAQQTVDDALSHGRKVMLFANSINHVESLSEAFDLLGIEHERVHSQRSSDENDESIRRYKSNEVRLIINMSMLTIGFDDPTTDCVVLARPTKILRLYLQIIGRCLRASKGKTSALILDLAQCISTHGFAEDLRDFTRKTSKSAAIMAERLSVTNIGQFVDGEFTYNESIERKVVKKRAPVIRRKPRDGLVASKELVDRAASNRAAALLRLNPRMEKLVSTIELVNIVYEQQDESSKMLDEVAMVKLVALIGFAYSDALVDSCTALVEGLHAQNQSIRGLPLRVSNLITSIAMQDLGVKEVVTKS”: “not soluble”; for “MGSDKIHHHHHHMAGTTTTRKKFRVAVSGATVDGREIKPEHLRDAAANYSPDVYGARVNVEHYLSPYPDSDFGAMGDVTALSAEDITDGPLSGRTALYAEIEPSARMKQLTDAGKKVFSSIELHPQFALNGKAYVMGLAMTDTPASLGTERLKFATQQRAQVMAFNNQQAEAPMFSDAIEADVIELTAQRGEEGKQWFNRVMGIMGKGKKSDDERFSQVHQAVEVVAQSQADLSDQFSAVEQARASDKQAIEKLTSDFEALRQKLSVTDGSFSHRPPAGGGNNSQLADY”: “not soluble”.
For the sequence “MATNRSRRLRKKLCVDEFQELGFELNLDFKQELDDKAIDAFLDAFLKEAMEANGLGYVGGDDFGLVCLSKRGSVSEEQRAAVEAWLKGRSELTEVTVSPLIDVWY”, the “soluble on expression in E. coli” value is “not soluble”.
In the case of “APPKAVLKLEPPWINVLQEDSVTLTCQGARSPESDSIQWFHNGNLIPTHTQPSYRFKANNNDSGEYTCQTGQTSLSDPVHLTVLSEWLVLQTPHLEFQEGETIMLRCHSWKDKPLVKVTFFQNGKSQKFSRLDPTFSIPQANHSHSGDYHCTGNIGYTLFSSKPVTITVQVHHHHHH”, the “soluble on expression in E. coli” value is reported as “soluble”.
In the case of “GPGSMMEATERRRKRERNERNDERRDDCEVLAKTDEKRTIVEELFQRLQSLDHTHMELEARLCRRAEVSDKSGSTSSEREWKGRRARKTRTEVMPGVAEEDYKRIEEFCLDKGKEGSVTRSTTRDVSFGQWRYTYTSGKPSECIACIRKERLFVLDVPVPSGAYDIRFSACTEITGELPSPNFAPTRGYTRHKDRLSVTDGLFRYDLTRVRDKHTTGYEVEVEFLLKDNDEKKITDSHVEELVGRALSLATLTASEG”, the “soluble on expression in E. coli” value is given as “soluble”.
Regarding “MCAKATMEEFEALLNESLQIDTPQEGSVVKGKVIAVEAGQAIIDVGYKMEGRVDLKEFADMSGSVDISVGDEVEVYLDRVENARGEAVISRDKAKREEAWDRLEKAYANETRVEGAIFGRVKGGFTVDLGGAVAFLPGSQVDVRPVRDAGPLMGMKQPFQILKMDRRRGNIVVSRRAILEESRAEQRAEVISNLFEGQTVDGVVKNITEYGAFVDLGGVDGLLHVTDMAWRRVNHPSEILSIGETVKVQVIKINKETHRISLGMKQLQSDPWDAVEKAYPIGSVHKGRVTNITDYGAFVELEAGVEGLVHVSEMSWTKKNVHPGKIVSTSQEVDVMVLEIDSAKRRVSLGLKQTMRNPWEVFAETHPVGTPIEGEVKNITEFGLFVGLEHDIDGMVHLSDLSWDQRGEEAIQNYRKGDVVKAVVTEVDTDKERISLSIKALGDDTFSEAIEGVKRGSVITVTVTAIEDGGIEVEYNSMKSFIRRSDLSRDRADQRPERFQVGDKVDVRVTNVDAKTRRLGLSIKAREIAEEKEAVEQYGSSDSGASLGDILGAALRNSDRGLEHHHHHH”, the “soluble on expression in E. coli” value is given as “soluble”.
For “MAHHHHHHMYRAHSKDINRNKGFHPLTYRNLRRVEQLKEEAELNKQKAEERQKELQRDQEERRYDELVLANSADSLSGELARYRQTRSIFAAEYEADAKAAKDASVASLPSPQVSKPEVQLKTSAGASFPVNSFLSKFKKEESYGSTCVMVKAEARDNTAAAASSAVASAEAETPVRKRPRDDATSNSPSSTHNGSGYGEGATKRGGDGGESAPATGFVTSAEAAQLRKELNLAQKQRHDPLMRVKEYQNSCVAAAARQLDHEQATGAVAKREDDQDKLQSRIRELLALKKKKK”, the “soluble on expression in E. coli” value is reported as “not soluble”.
